# Data as given in US20060257397A1.
# Tests used:
# murine CD1d (mouse) = murine CD1d (mouse) (UniProt P11609); assay: flow cytometry on mouse thymocytes, K-S statistics
# murine CD1a (mouse) = assay: flow cytometry on mouse thymocytes, K-S statistics
# murine CD1d (mouse), sequence (P11609 22-336): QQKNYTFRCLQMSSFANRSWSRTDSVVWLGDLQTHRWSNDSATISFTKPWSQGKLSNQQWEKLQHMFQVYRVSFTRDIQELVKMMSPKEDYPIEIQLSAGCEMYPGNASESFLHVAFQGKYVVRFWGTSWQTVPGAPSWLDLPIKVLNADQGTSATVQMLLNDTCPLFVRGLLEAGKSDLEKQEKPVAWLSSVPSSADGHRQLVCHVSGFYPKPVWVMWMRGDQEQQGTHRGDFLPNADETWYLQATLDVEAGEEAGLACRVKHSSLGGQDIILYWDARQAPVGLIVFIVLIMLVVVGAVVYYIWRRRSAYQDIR
substance,measurement,setting,value
Positive control (mouse anti-human CD1a-FITC) (antibody),D-value,murine CD1d (mouse),0.03
same,D-value,murine CD1a (mouse),0.03
